# Laboratory results as given in patent publication US20090291081A1 (AbbVie / Abbott, published 2009).
# Values joined by “and” are separate entries in the source; they are usually repeats but may differ in a detail not shown here. Identical values can stand only once.
# Target: human IL-1β (human, UniProt P01584 117-269)
# Assay: cell-based or functional assay
row,Binder,IL-1β IC50
1,"ABT2-65-17/ABT1-122-511 hu IgG1/K wt (bispecific antibody, V domains shown) VH: EVQLLESGGGLVQPGGSLRLSCVASGFTFEDYQMGWVRQAPGKGLEWVSSISAMGNRTYYADSVKGRFTISRDDSKNTLYLQMNSLRAEDTAVYYCAQNLVRLGRSRWMFDYWGQGTLVTVSS VL: DIQMTQSPSSLSASVGDRVTITCRASQPIWTELNWYQQKPGKAPKLLIYGSSSLQRGVPSRFSGSGSGTDFTLTISSLQPEDFATYYCKQFAYFPATFGQGTKVEIKR",0.1 nM and 0.16 nM
2,"ABT2-108-620x/ABT1-122-513 huIgG1/K w (bispecific antibody, V domains shown) VH: EVQLLESGGGLVQPGGSLRLSCAASGFTFAEESWMWVRQAPGKGLEWVSRIGQDGKNTYYREDVKGRFTISRDNSKNTLYLQMNSLRAEDTAVYYCAKYTGRIMGHHLFDYWGQGTLVTVSS VL: DIQMTQSPSSLSASVGDRVTITCRASQPIWTELNWYQQKPGKAPKLLIYGSGSRQRGVPSRFSGSGSGTDFTLTISSLQPEDFATYYCKQFAYFPATFGQGTKVEIKR",0.01 nM and 0.009 nM
3,"ABT2-108/ABT1-141-25 hu IgG1/K wt (bispecific antibody, V domains shown) VH: EVQLLESGGGLVQPGGSLRLSCAASGFTFAEYTMMWVRQAPGKGLEWVSRIGQDGKNTYYADSVKGRFTISRDNSKNTLYLQMNSLRAEDTAVYYCAKYTGRVGVHHLFDYWGQGTLVTSS VL: DIQMTQSPSSLSASVGDRVTITCRASQWIQKQLAWYQQKPGKAPKLLIYSSSYLQSGVPSRFSGSGSGTDFTLTISSLQPEDFATYYCQQHLRVPMTFGQGTKVEIKR",150 nM

# Target: T1, human IL-1β (human, UniProt P01584 117-269)
# Assay: cell-based or functional assay
row,Binder,ND50
1,ABT2-6 (other) VL: DIQMTQSPSSLSASVGDRVTITCRASQSIGLLLTWYQQKPGKAPKLLIYMASQLQSGVPSRFSGSGSGTDFTLTISSLQPEDFATYYCQQWHRPPSTFGQGTKVEIKR,> 20 µM
2,ABT2-7 (other) VL: DIQMTQSPSSLSASVGDRVTITCRASQSIKSGLNWYQQKPGKAPKLLIYMASQLQSGVPSRFSGSGSGTDFTLTISSLQPEDFATYYCQQWHRPPSTFGQGTKVEIKR,> 20 µM
3,ABT2-8 (other) VL: DIQMTQSPSSLSASVGDRVTITCRASQSIKSMLAWYQQKPGKAPKLLIYMASNLQSGVPSRFSGSGSGTDFTLTISSLQPEDFATYYCQQTIVKPSTFGQGTKVEIKR,> 20 µM
4,ABT2-10 (other) VH: EVQLLESGGGLVQPGGSLRLSCTASGFTFNRYNMAWARQAPGKGLEWVSEIDLKGSQTYYADSVKGRFTISRDNSKNTLYLQMNSLRAEDTAVYYCAKVSISAYHMFDYWGQGTLVTVSS,6 µM
5,ABT2-11 (other) VH: EVQLLESGGGLVQPGGSLRLSCAASGFTFDNYSMTWVRQAPGKGLEWVSAISGSGGSTYYADSVKGRFTISRDNSKNTLYLQMNSLRAEDTAVYYCAKCIDRLPCLFDYWGQGTLVTVSS,> 10 µM
6,ABT2-35 (other) VH: EVQLLESGGGLVQPGGSLRLSCAASGFTFGEYDMAWVRQAPGKGLEWVSVIYAWGTSTYYADSVKGRFTISRDNSKNTLYLQMNSLRAEDTAVYYCAKMGGGLVSLPQSKFDYWGQGTLVTVSS,> 10 µM
7,ABT2-39 (other) VH: EVQLLESGGGLVQPGGSLRLSCAASGFTFRAYDMGWVRQAPGKGLEWVSVIYAWGTSTYYADSVKGRFTISRDNSKNTLYLQMNSLRAEDTAVYYCAKIDRDASLPTGEGFDYWGQGTLVTVSS,> 10 µM
8,ABT2-43 (other) VL: DIQMTQSPSSLSASVGDRVTITCRASQNIDTYLTWYQQKPGKAPRLLIYGASTLQSGVPSRFSGSGSGTDFTLTISSLQPEDFATYYCQQRAYYPTTFGQGTKVEIKR,> 10 µM
9,ABT2-64 (other) VH: EVQLLESGGGLVQPGGSLRLSCAASGFTFDDYGMGWVRQAPGKGLEWVSLIYPFGGGTYYADSVKGRFTISRDNSKNTLYLQMNSLRAEDTAVYYCAKVTQTGKFDYWGQGTLVTVSS,> 10 µM

# Target: T1, human IL-1β
# Assay: IC50 column of Table 63; receptor binding assay presumed
row,Binder,IC50
1,"ABT2-65-152 (other, VH dAb) VH: EVQLLESGGGLVQPGGSLRLSCAASGFTFEDYQMGWVRQAPGKGLEWVSSISAMGNRTYYADSVKGRFTISRDDSKNTLYLQMNSLRAEDTAVYYCAENLVRWKSSAWMFDYWGQGTLVTVSS",5 nM
2,"ABT2-65-155 (other, VH dAb) VH: EVQLLESGGGLVQPGGSLRLSCAASGFTFEDYQMGWVRQAPGKGLEWVSSISAMGNRTYYADSVKGRFTISRDDSKNTLYLQMNSLRAEDTAVYYCAQNLVLVQRRKWMFDYWGQGTLVTVSS",5 nM
3,"ABT2-65-156 (other, VH dAb) VH: EVQLLESGGGLVQPGGSLRLSCAASGFTFEDYQMGWVRQAPGKGLEWVSSISAMGNRTYYADSVKGRFTISRDDSKNTLYLQMNSLRAEDTAVYYCAQNLVRIGRNKWMFDYWGQGTLVTVSS",5 nM
4,"ABT2-65-158 (other, VH dAb) VH: EVQLLESGGGLVQPGGSLRLSCAASGFTFEDYQMGWVRQAPGKGLEWVSSISAMGNRTYYADSVKGRFTISRDDSKNTLYLQMNSLRAEDTAVYYCAQNLVKWKRDFWMFDYWGQGTLVTVSS",5 nM
5,"ABT2-65-159 (other, VH dAb) VH: EVQLLESGGGLVQPGGSLRLSCAASGFTFEDYQMGWVRQAPGKGLEWVSSISAMGNRTYYADSVKGRFTISRDDSKNTLYLQMNSLRAEDTAVYYCAENLVRVSKARWMFDYWGQGTLVTVSS",5 nM
6,"ABT2-65-167 (other, VH dAb) VH: EVQLLESGGGLVQPGGSLRLSCAASGFTFEDYQMGWVRQAPGKGLEWVSSISAMGNRTYYADSVKGRFTISRDDSKNTLYLQMNSLRAEDTAVYYCAQNLVRWKKNEWMFDYWGQGTLVTVSS",30 nM
7,"ABT2-65-168 (other, VH dAb) VH: EVQLLESGGGLVQPGGSLRLSCAASGFTFEDYQMGWVRQAPGKGLEWVSSISAMGNRTYYADSVKGRFTISRDDSKNTLYLQMNSLRAEDTAVYYCAQNLVRWKLESWMFDYWGQGTLVTVSS",30 nM
8,"ABT2-65-169 (other, VH dAb) VH: EVQLLESGGGLVQPGGSLRLSCAASGFTFEDYQMGWVRQAPGKGLEWVSSISAMGNRTYYADSVKGRFTISRDDSKNTLYLQMNSLRAEDTAVYYCAENLVNWRRGSWMFDYWGQGTLVTVSS",9 nM
9,"ABT2-65-170 (other, VH dAb) VH: EVQLLESGGGLVQPGGSLRLSCAASGFTFEDYQMGWVRQAPGKGLEWVSSISAMGNRTYYADSVKGRFTISRDDSKNTLYLQMNSLRAEDTAVYYCAENLVRVLLNKWMFDYWGQGTLVTVSS",10 nM
10,"ABT2-65-171 (other, VH dAb) VH: EVQLLESGGGLVQPGGSLRLSCAASGFTFEDYQMGWVRQAPGKGLEWVSSISAMGNRTYYADSVKGRFTISRDDSKNTLYLQMNSLRAEDTAVYYCAQNLVRLNRSQWMFDYWGQGTLVTVSS",7.5 nM
11,"ABT2-65-172 (other, VH dAb) VH: EVQLLESGGGLVQPGGSLRLSCAASGFTFEDYQMGWVRQAPGKGLEWVSSISAMGNRTYYADSVKGRFTISRDDSKNTLYLQMNSLRAEDTAVYYCAENLVRWKKGSWMFDYWGQGTLVTVSS",6 nM
12,"ABT2-65-173 (other, VH dAb) VH: EVQLLESGGGLVQPGGSLRLSCAASGFTFEDYQMGWVRQAPGKGLEWVSSISAMGNRTYYADSVKGRFTISRDDSKNTLYLQMNSLRAEDTAVYYCAQNLVRFRAKEWMFDYWGQGTLVTVSS",30 nM
13,"ABT2-65-174 (other, VH dAb) VH: EVQLLESGGGLVQPGGSLRLSCAASGFTFEDYQMGWVRQAPGKGLEWVSSISAMGNRTYYADSVKGRFTISRDDSKNTLYLQMNSLRAEDTAVYYCAQNLVRFKKTQWMFDYWGQGTLVTVSS",10 nM
14,"ABT2-65-175 (other, VH dAb) VH: EVQLLESGGGLVQPGGSLRLSCAASGFTFEDYQMGWVRQAPGKGLEWVSSISAMGNRTYYADSVKGRFTISRDDSKNTLYLQMNSLRAEDTAVYYCAENLVRIAGDRWMFDYWGQGTLVTVSS",10 nM
15,"ABT2-65-176 (other, VH dAb) VH: EVQLLESGGGLVQPGGSLRLSCAASGFTFEDYQMGWVRQAPGKGLEWVSSISAMGSRTYYADSVKGRFTISRDDSKNTLYLQMNSLRAEDTAVYYCAENLVKVARGRWMFDYWGQGTLVTVSS",5 nM
16,"ABT2-65-177 (other, VH dAb) VH: EVQLLESGGGLVQPGGSLRLSCAASGFTFEDYQMGWVRQAPGKGLEWVSSISAMGNRTYYADSVKGRFTISRDDSKNTLYLQMNSLRAEDTAVYYCAQNLVRFKVLQWMFDYWGQGTLVTVSS",20 nM
17,ABT2-42 (other) VL: DIQMTQSPSSLSASVGDRVTITCRASQYIEKWLTWYQQKPGKAPTLLIYRGSLLQSGVPSRFSGSGSGTDFTLTISSLQPEDFATYYCQQTEYWPFTFGQGTKVEIKR,770 nM
18,ABT2-46 (other) VL: DIQMTQSPSSLSASVGDRVTITCRASQSIIEWLSWYQQKPGKAPKLLIYRTSVLQSGVPSRFSGSGSGTDFTLTISSLQPEDFATYYCQQNEFWPFTFGQGTKVEIKR,390 nM
19,"ABT2-65-10 (other, VH dAb) VH: VQLSESGGGLVQPGGSLRLSCAASGFTFTEYNMGWVRQAPGKGLEWVSSISAMGNRTYYADSVKGRFTISRDDSKNTLYLQMNSLRAEDTAVYYCANNLVRTQSKMWMFDYWGQGTLVTVSS",20 nM
20,ABT2-108 (other) VH: EVQLLESGGGLVQPGGSLRLSCAASGFTFAEYTMMWVRQAPGKGLEWVSRIGQDGKNTYYADSVKGRFTISRDNSKNTLYLQMNSLRAEDTAVYYCAKYTGRVGVHHLFDYWGQGTLVTSS,70 nM
